From patent publication US20120021995A1 (published 2012)
Substitutions are numbered along the chain they refer to. Where two headings read alike, the source gives them in different places.

T1: DR4 (TRAIL-R1) on cancer cells (human, UniProt O00220 24-468)
T1 sequence: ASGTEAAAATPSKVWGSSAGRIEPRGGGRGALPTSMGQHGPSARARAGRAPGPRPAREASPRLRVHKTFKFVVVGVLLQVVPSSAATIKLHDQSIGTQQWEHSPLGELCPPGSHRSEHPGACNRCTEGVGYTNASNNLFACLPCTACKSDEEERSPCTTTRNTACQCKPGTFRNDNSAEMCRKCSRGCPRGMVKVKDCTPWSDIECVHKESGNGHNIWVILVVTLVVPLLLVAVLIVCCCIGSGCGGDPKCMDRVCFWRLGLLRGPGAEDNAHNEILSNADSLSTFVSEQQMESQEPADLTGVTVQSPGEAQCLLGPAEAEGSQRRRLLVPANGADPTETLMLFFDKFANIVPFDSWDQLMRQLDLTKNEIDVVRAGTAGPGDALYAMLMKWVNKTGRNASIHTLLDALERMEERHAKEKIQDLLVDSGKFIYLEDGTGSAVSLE

T2: recombinant human TRAIL R1 (DR4)/Fc chimera (human, UniProt O00220 24-239)
T2 construct: bought (R&D Systems); not shown: Fc of the bought chimera (R&D Systems)
T2 sequence: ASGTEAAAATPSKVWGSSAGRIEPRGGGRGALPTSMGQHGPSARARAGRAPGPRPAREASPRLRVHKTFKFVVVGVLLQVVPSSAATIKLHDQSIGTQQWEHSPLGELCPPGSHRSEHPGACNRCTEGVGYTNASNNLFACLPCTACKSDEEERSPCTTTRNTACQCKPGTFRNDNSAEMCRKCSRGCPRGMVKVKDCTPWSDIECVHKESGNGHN

B1: 71p88P1A1 (designed binder)
chain: EPPTQKPKKIVNAKKDVVNTKMFEELKSRLDTLAQEVALLKEQQALQTVCLKGTKVHMKCFLAFTQTKTFHEASEDCISRGGTLSTPQTGSENDALYEYLRQSVGNEAEIWLGLNGWMDGSGWVDMTGARIAYKNWETEITAQPDGGRLWRWENCAVLSGAANGKWFDKRCRDQLPYICQFGIV
B2: 71p88P1B4 (designed binder)
chain: B1 chain with M118L, D119E, S121Y, R148A, L149E, W150R, R151A
B3: 71p88P1B9 (designed binder)
chain: B1 chain with M118L, D119A, R148G, L149G, R151P
B4: 71p88P1B12 (designed binder)
chain: B1 chain with M118I, D119E, S121A, R148W, L149R, W150S
B5: 71p88P1D9 (designed binder)
chain: B1 chain with M118V, D119A, S121V, R148G, L149G
B6: 71p88P1G11 (designed binder)
chain: B1 chain with D119A, S121V, R148P, L149G, W150L
B7: 064-40.1G9 (designed binder)
chain: ALQTVCLKGTKVHMKCFLAFTQTKTFHEASEDCISRGGTLSTPQTGSENDALYEYLRQSVGNEAEIWLGLNGWLSGVGWVDMTGARIAYKNWETEITAQPDGGWAHAWENCAVLSGAANGKWFDKRCRDQLPYICQFGIV
notes: on phage
B8: 064-40.1G11 (designed binder)
chain: ALQTVCLKGTKVHMKCFLAFTQTKTFHEASEDCISRGGTLSTPQTGSENDALYEYLRQSVGNEAEIWLGLNVARWLLKWVDMTGARIAYKNWETEITAQPDGGMCKPCENCAVLSGAANGKWFDKRCRDQLPYICQFGIV
notes: on phage
B9: 064-40.2A10 (designed binder)
chain: B7 chain with W73V, S75Q, G76R, V77G, W104P, A105G, H106G, A107E, W108R
notes: on phage
B10: 064-40.2C7 (designed binder)
chain: ALQTVCLKGTKVHMKCFLAFTQTKTFHEASEDCISRGGTLSTPQTGSENDALYEYLRQSVGNEAEIWLGLNSYRLHYGWVDMTGARIAYKNWETEITAQPDGGRRWLGENCAVLSGAANGKWFDKRCRDQLPYICQFGIV
notes: on phage
B11: 064-40.2D9 (designed binder)
chain: ALQTVCLKGTKVHMKCFLAFTQTKTFHEASEDCISRGGTLSTPQTGSENDALYEYLRQSVGNEAEIWLGLNWQLYYRYWVDMTGARIAYKNWETEITAQPDGGVGCMVENCAVLSGAANGKWFDKRCRDQLPYICQFGIV
notes: on phage
B12: 064-40.2E10 (designed binder)
chain: B7 chain with W73Y, S75D, W104Q, A105G, H106C, A107R
notes: on phage
B13: 064-40.2G11 (designed binder)
chain: B7 chain with S75E, V77A, A105Q, H106W, A107R
notes: on phage
B14: 064-98.1G6 (designed binder)
chain: B7 chain with V77Y, W104R, A105V, H106W, A107S
notes: on phage
B15: 064-99.2H5 (designed binder)
chain: B7 chain with W73L, G76D, V77W, G78W, W104G, A105N, H106Q, A107S, W108R
notes: on phage
B16: 064-101.4B10 (designed binder)
chain: B7 chain with G72Q, L74V, S75A, G76F, V77W, G78S, W104S, H106V, A107S, W108G
notes: on phage
B17: 064-101.4H1 (designed binder)
chain: B10 chain with S72P, R74T, L75S, H76W, Y77G, G78L, R104V, R105G, W106G, L107R
notes: on phage
B18: 119p83P1A3 (designed binder)
chain: ALQTVCLKGTKVHMKCFLAFTQTKTFHEASEDCISRGGTLSTPQTGSENDALYEYLRQSVGNEAEIWLGLNGWLEGVGWVDMTGARIAYKNWVAKDHEQPDGGWPFSNENCAVLSGAANGKWFDKRCRDQLPYICQFGIV
notes: on phage
B19: 119p83P1A7′ (designed binder)
chain: B18 chain with V93Y, A94S, K95W, D96P, H97K, E98L
notes: on phage
B20: 119p83P1A9 (designed binder)
chain: B18 chain with A94Y, K95R, D96P, H97G, E98M
notes: on phage
B21: 119p83P1A11 (designed binder)
chain: B18 chain with V93D, K95P, D96V, H97S, E98G
notes: on phage
B22: 119p83P1A12 (designed binder)
chain: B18 chain with V93Q, A94P, K95G, D96L, H97W, E98R
notes: on phage
B23: 119p83P1C9 (designed binder)
chain: B18 chain with V93G, A94G, K95E, D96V, H97L, E98L
notes: on phage
B24: 119p83P1C11 (designed binder)
chain: B18 chain with V93A, A94M, K95H, D96Y, H97Y, E98W
notes: on phage
B25: 119p83P1C12 (designed binder)
chain: B18 chain with V93N, A94S, K95N, D96V, H97V, E98L
notes: on phage
B26: 119p83P1D10 (designed binder)
chain: B18 chain with V93G, A94R, K95R, D96R, H97N, E98L
notes: on phage
B27: 119p83P1D11 (designed binder)
chain: B18 chain with V93Q, A94V, K95H, D96A, H97R, E98S
notes: on phage
B28: 119p83P1F12 (designed binder)
chain: B18 chain with V93F, A94I, K95P, D96A, H97D, E98R
notes: on phage
B29: 119p83P1G3 (designed binder)
chain: B18 chain with V93Y, A94V, K95R, D96S, H97E, E98G
notes: on phage
B30: 119p83P1G12 (designed binder)
chain: B18 chain with V93G, A94S, K95Y, D96G, H97P, E98F
notes: on phage
B31: 119p83P1H3 (designed binder)
chain: B18 chain with V93S, A94E, K95D, D96R, H97P, E98G
notes: on phage
B32: 119p83P1H5 (designed binder)
chain: B18 chain with V93G, A94T, K95G, D96V, H97M, E98G
notes: on phage
B33: 119p83P1H7 (designed binder)
chain: B18 chain with A94N, K95H, D96G, H97V, E98G
notes: on phage
B34: 119p83P1H8 (designed binder)
chain: B18 chain with V93G, A94G, K95S, D96I, H97S, E98A
notes: on phage

What was measured:
[1] = molecular target: T1, DR4 (TRAIL-R1) on cancer cells; assay: cell-based or functional assay
[2] = molecular target: T2, recombinant human TRAIL R1 (DR4)/Fc …; assay: phage ELISA on DR4/Fc
Protocol: The remaining overnight culture was used to make a master stock plate by adding 100 μL of 50% glycerol to each well and storing at −80° C. The replica culture plate was grown at 37° C. with shaking at 250 rpm for approximately 2 hrs until the OD₆₀₀ was 0.5-0.7. The wells were then infected with K07 helper phage to 5×10⁹ pfu/mL mixed and incubated at 37° C. for 30 minutes without shaking, then incubated an addition 30 minutes at 37° C. with shaking at 250 rpm. The cultures were then spun down at 2500 rpm and 4° C. for 20 minutes. The supernatants were removed from the wells and the bacterial cell pellets were re-suspended in 500 μL of 2xYT containing 50 μg/mL carbenicillin and 50 μg/mL kanamycin. An air-permeable membrane was placed on the culture block and cells were grown overnight at room temperature with shaking at 250 rpm.
On day 3, cultures were spun down and supernatants containing the phage were blocked with 3% milk/PBS for 1 hr at room temperature. An initial Phage ELISA was performed using 75-100 ng of antigen bound per well. Non-specific binding was measured using 75-100 ng of human IgG1 Fc per well. DR4/Fc antigen (R&D Systems)-coated wells and IgG Fc coated wells were prepared fresh the night before by binding the above amount of antigen diluted in 100 μL of PBS per well. Antigen plates were incubated overnight at 4° C. then for 1 hour at 37° C., washed twice with PBS/0.05% Tween 20 and twice with PBS, and then blocked with 3% milk/PBS for 1 hr at 37° C. prior to the ELISA. Blocked phage were bound to blocked antigen-bound plates for 1 hr then washed twice with 0.05% Tween 20/PBS and then twice more with PBS. A HRP-conjugated anti-M13 secondary antibody diluted in 3% milk/PBS was then applied, with binding for 1 hr and washing as described above. The ELISA signal was developed using 90 μL TMB substrate mix and then stopped with 90 μL 0.2 M sulfuric acid, then ELISA plates were read at 450 nm. […] Secondary ELISA screens were performed similarly to the protocol detailed above.

[3] = molecular target: T2, recombinant human TRAIL R1 (DR4)/Fc …; assay: phage ELISA on DR4/Fc; remark: listed apart in the source

| Binder | binding result [2] | binding result [3] | further results |
| --- | --- | --- | --- |
| B1 | – | – | Colo205 % killing (% of TRAIL activity) [1]: -1%; H2122 % killing (% of TRAIL activity) [1]: -2%; ST486 % killing (% of TRAIL activity) [1]: 57% |
| B2 | – | – | Colo205 % killing (% of TRAIL activity) [1]: -25%; H2122 % killing (% of TRAIL activity) [1]: -5%; ST486 % killing (% of TRAIL activity) [1]: -15% |
| B3 | – | – | Colo205 % killing (% of TRAIL activity) [1]: 7%; H2122 % killing (% of TRAIL activity) [1]: 3%; ST486 % killing (% of TRAIL activity) [1]: 34% |
| B4 | – | – | Colo205 % killing (% of TRAIL activity) [1]: -10%; H2122 % killing (% of TRAIL activity) [1]: -1%; ST486 % killing (% of TRAIL activity) [1]: 26% |
| B5 | – | – | Colo205 % killing (% of TRAIL activity) [1]: -21%; H2122 % killing (% of TRAIL activity) [1]: -3%; ST486 % killing (% of TRAIL activity) [1]: 28% |
| B6 | – | – | Colo205 % killing (% of TRAIL activity) [1]: 1%; H2122 % killing (% of TRAIL activity) [1]: 4%; ST486 % killing (% of TRAIL activity) [1]: 45% |
| B7 | binds | – | – |
| B8 | binds | – | – |
| B9 | binds | – | – |
| B10 | binds | – | – |
| B11 | binds | – | – |
| B12 | binds | – | – |
| B13 | binds | – | – |
| B14 | binds | – | – |
| B15 | binds | – | – |
| B16 | binds | – | – |
| B17 | binds | – | – |

| Binder | binding result [2] | binding result [3] | further results |
| --- | --- | --- | --- |
| B18 | – | binds | – |
| B19 | – | binds | – |
| B20 | – | binds | – |
| B21 | – | binds | – |
| B22 | – | binds | – |
| B23 | – | binds | – |
| B24 | – | binds | – |
| B25 | – | binds | – |
| B26 | – | binds | – |
| B27 | – | binds | – |
| B28 | – | binds | – |
| B29 | – | binds | – |
| B30 | – | binds | – |
| B31 | – | binds | – |
| B32 | – | binds | – |
| B33 | – | binds | – |
| B34 | – | binds | – |
